From patent publication US5674838A, “Hirudin derivatives and a process for their preparation” (Hoechst Aktiengesellschaft, priority 1994, dated 1997)

Assays:
[1] = system: Rhesus monkeys; experiment: anticoagulatory effect following intravenous administration to Rhesus monkeys; format: in vivo
Source text: Amino acid analysis of the product conforms with the composition which is to be expected from the amino acid sequence. Edman sequence analysis indicates 2 N-terminal amino acid residues Leu(1) and Asn(37).

[2] = target: recombinantly obtained desulfato-Tyr63 hirudin (leech (Hirudo medicinalis), made recombinantly in yeast cells)

(hirudin 1-63)-Thr(64)-Arg(65)-Arg(66)--OH [Example 3]
anticoagulatory effect (activity compared with starting hirudin) ([1]; intravenous administration to Rhesus monkeys (1 mg/kg), test conditions per Jurgens 1952): virtually identical to that of the starting hirudin

chymotrypsin (Merck, Darmstadt) (enzyme)
transpeptidation at Tyr63; composition of the crude product by analytical HPLC [2]: 65.2%

B1: (hirudin 1-36)-Thr, (hirudin 37-65) (protein)
chain 1: LTYTDCTESGQNLCLCEGSNVCGQGNKCILGSDGEKT
chain 2: NQCVTGEGTPKPQSHNDGDFEEIPEEYLQ
anticoagulatory effect (activity compared with starting hirudin) ([1]; intravenous administration to Rhesus monkeys, dose not given): virtually identical to that of the starting hirudin
